The record followed here is patent publication US20240287172A1 (SCIRHOM, published 2024).

The target in assay [1] is T1, hiR2-FL-K536A-T7 (human, UniProt Q6PJF5 1-856).
T1 construct: on MEF-DKO cells
T1 sequence: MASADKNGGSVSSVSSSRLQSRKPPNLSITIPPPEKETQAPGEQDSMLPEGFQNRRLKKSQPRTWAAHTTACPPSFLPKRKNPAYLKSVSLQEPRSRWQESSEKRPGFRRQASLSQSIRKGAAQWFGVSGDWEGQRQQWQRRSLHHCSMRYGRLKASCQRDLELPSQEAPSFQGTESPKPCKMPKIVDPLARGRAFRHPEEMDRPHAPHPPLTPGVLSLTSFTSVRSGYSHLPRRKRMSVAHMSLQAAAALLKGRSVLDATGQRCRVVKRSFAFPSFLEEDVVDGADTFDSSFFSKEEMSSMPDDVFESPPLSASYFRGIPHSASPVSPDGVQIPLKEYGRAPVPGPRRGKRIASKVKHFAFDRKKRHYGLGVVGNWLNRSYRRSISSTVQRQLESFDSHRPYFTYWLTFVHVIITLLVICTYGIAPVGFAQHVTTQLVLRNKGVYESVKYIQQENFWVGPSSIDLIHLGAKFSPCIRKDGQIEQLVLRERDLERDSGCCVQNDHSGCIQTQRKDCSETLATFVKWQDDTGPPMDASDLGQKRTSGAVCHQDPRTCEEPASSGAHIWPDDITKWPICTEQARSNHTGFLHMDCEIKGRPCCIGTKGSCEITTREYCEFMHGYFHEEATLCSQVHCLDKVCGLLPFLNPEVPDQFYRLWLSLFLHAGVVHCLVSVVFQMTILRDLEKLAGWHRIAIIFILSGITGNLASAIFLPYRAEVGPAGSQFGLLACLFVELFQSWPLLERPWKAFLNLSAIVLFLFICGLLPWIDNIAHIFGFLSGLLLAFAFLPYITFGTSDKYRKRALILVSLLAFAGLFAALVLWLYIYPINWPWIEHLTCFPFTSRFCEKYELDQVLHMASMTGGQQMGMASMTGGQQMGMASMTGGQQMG
Nature of the assay: FACS on MEF-DKO-hiR2-FL-K536A-T7 cells.

Assay [2] addresses T2, dog iRhom2 full length wild type, T7-tagged (dog, UniProt Q00M95 1-827).
T2 construct: whole, on cells; on MEF-DKO cells; also called Dog-iR2-FL-WT-T7
T2 sequence: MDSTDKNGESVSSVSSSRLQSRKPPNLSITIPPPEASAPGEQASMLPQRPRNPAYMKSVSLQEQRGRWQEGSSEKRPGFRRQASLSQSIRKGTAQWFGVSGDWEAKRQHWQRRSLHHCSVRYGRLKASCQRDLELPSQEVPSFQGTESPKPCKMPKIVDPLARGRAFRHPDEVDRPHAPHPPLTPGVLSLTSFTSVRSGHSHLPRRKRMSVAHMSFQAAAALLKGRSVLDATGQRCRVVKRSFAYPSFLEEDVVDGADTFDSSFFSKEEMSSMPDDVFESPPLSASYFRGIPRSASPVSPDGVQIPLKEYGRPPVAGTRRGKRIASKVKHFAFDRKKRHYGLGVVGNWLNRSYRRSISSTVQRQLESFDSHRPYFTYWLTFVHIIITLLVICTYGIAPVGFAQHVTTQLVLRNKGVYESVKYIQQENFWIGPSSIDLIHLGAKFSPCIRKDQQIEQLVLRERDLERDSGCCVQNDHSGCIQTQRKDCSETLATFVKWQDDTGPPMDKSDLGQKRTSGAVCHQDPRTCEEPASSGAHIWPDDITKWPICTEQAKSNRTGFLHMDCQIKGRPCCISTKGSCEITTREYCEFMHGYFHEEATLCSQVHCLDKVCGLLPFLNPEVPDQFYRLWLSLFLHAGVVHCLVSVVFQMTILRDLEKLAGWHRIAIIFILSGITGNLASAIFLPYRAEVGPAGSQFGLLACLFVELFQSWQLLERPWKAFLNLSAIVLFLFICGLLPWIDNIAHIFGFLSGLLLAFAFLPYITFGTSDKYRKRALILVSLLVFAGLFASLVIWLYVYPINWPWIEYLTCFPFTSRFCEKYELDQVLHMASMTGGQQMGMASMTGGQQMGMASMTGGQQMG
Nature of the assay: FACS on MEF-DKO-iR2 Dog cells, 3 µg/ml. As for the experimental part:
In brief, immortalized MEF-DKO-EV control cells, MEF-DKO-rhesus-iR2-FL-WT-T7 cells, MEF-DKO-cyno-iR2-FL-WT-T7 cells, MEF-DKO-dog-iR2-FL-WT-T7 cells and MEF-DKO-rabbit-iR2-FL-WT-T7 cells, as well as their respective iRhom1 counterparts, were harvested with 10 mM EDTA in PBS, washed and resuspended in FACS buffer (PBS, 3% FBS, 0.05% sodium azide), and seeded in Nunc U-bottom 96-well plates (Thermo Fisher Scientific, USA) at approximately 3×10⁵ cells per well. To pellet cells and remove supernatants, the plates were centrifuged at 1,500 rpm and 4° C. for 3 minutes. For primary staining, cells were resuspended in 100 μl per well of either FACS buffer alone (controls), mouse monoclonal anti-T7 IgG (Merck Millipore, USA) at 3 μg/ml FACS buffer or the antibodies of the invention also at 3 μg/ml FACS buffer and incubated on ice for 1 hour.
Afterwards, plates were centrifuged at 1,500 rpm and 4° C. for 3 minutes and washed twice with 200 μl per well of FACS buffer. For secondary staining, cells were spun down and resuspended in 100 μl per well of PE-conjugated goat anti-mouse IgG F(ab′)2 detection fragment (Dianova, Germany) diluted 1:100 in FACS buffer. Protected from light, the cell suspensions were incubated on ice for 1 hour. […] Finally, cells were resuspended in 150 μl per well of FACS buffer and analyzed using a BD Accuri™ C6 Plus flow cytometer (Becton Dickinson, Germany).

B1: antibody 5 (antibody, V domains shown)
VH: QVTLKESGPGILQPSQTLSLTCSFSGFSLSTFGMGVGWIRQPSGKGLEWLAHIWWDDEKYYNSALKSRLTISKATSKNQAFLKIANVDTADTATYYCARISNYGSNYWYFNVWGTGTTVTVSS
VL: QVVLTQSPALMSASPGEKVTMTCSAGSSVSCMYWYQQKPGSSPRVLIYDTSNLASGVPARFTGSGSGTSYSLTISRMEAEDAASYYCQQWNSYPLTFGAGTKLELK
notes: mouse IgG, kappa light chain; also called clone #5; purified antibody 5
As to B1, the binding result in assay [1] is “no binding (tested: 3 µg/ml)”.

B2: antibody 16 (antibody, V domains shown)
VH: QVTLKESGPGILQPSQTLSLTCSFSGFSLSTFALGVGWIRQPSGRGLEWLAHIWWDDDKYYNPALKSRLTISKDTSKNHVFLKIANVDTADTATYYCARITTYYYGMDYWGQGTSVTVSS
VL: DIVLSQSPATLSVTPGDSVSLFCRASQSIGNHLHWYQQESHASPRLLIKYASQSISGIPSRFSGSGSGTDFTLSINSVETEDFGMYFCQQSYNWPLTFGAGTKLELK
notes: mouse IgG, kappa light chain; also called clone #16; purified antibody 16
For the molecule B2, the binding result in assay [2] is recorded as “binds”.
